Measured values as given in patent EP4674868A1.
Read-outs that look alike come from different tables or passages of the source.

Columns and labels:
[1] = target: human 4-1BB on the surface of HEK293 cells (HEK293-Hu4-1BB) (human) (UniProt Q07011); test: cell-based or functional assay
[2] = target: human 4-1BB on the surface of HEK293 cells (HEK293-Hu4-1BB) (human) (UniProt Q07011); test: FACS, HEK293-Hu4-1BB cells
[3] = target: human CD40 on the surface of HEK293 cells (HEK293-HuCD40) (human) (UniProt P25942); test: FACS, HEK293-HuCD40 cells
[4] = target: human 4-1BB on the surface of HEK293 cells (HEK293-Hu4-1BB) (human) (UniProt Q07011); test: FACS, HEK293-Hu4-1BB cells; remark: listed apart in the source
[5] = target: human 4-1BB on the surface of HEK293 cells (HEK293-Hu4-1BB) (human) (UniProt Q07011); test: cell-based or functional assay; remark: listed apart in the source
[6] = target: human CD40 on the surface of HEK293 cells (HEK293-HuCD40) (human) (UniProt P25942); test: FACS, HEK293-HuCD40 cells; remark: listed apart in the source
[7] = target: human CD40 on the surface of HEK293 cells (HEK293-HuCD40) (human) (UniProt P25942); test: cell-based or functional assay
[8] = target: human FAP on the surface of CHO-K1 cells (CHO-K1-HuFAP) (human) (UniProt Q12884); test: FACS, CHO-K1-HuFAP cells
[9] = target: human CD40 on the surface of HEK293 cells (HEK293-HuCD40) (human) (UniProt P25942); test: cell-based or functional assay; remark: listed apart in the source
[10] = target: human 4-1BB on the surface of HEK293 cells (HEK293-Hu4-1BB) (human) (UniProt Q07011); test: FACS, HEK293-Hu4-1BB cells; remark: listed apart in the source
[11] = target: human FAP on the surface of CHO-K1 cells (CHO-K1-HuFAP) (human) (UniProt Q12884); test: FACS, CHO-K1-HuFAP cells; remark: listed apart in the source
[12] = target: human FAP on the surface of CHO-K1 cells (CHO-K1-HuFAP) (human) (UniProt Q12884); test: FACS, CHO-K1-HuFAP cells; remark: listed apart in the source
[13] = target: human 4-1BB on the surface of HEK293 cells (HEK293-Hu4-1BB) (human) (UniProt Q07011); test: FACS, HEK293-Hu4-1BB cells; remark: listed apart in the source

Substance | 4-1BB/NF-κB luciferase reporter, CD40-crosslinked, Fold change in Emax [1] [fold] | 4-1BB/NF-κB luciferase reporter, FAP-crosslinked, Fold change in Emax [1] [fold] | 4-1BB/NF-κB luciferase reporter, uncrosslinked, Fold change in Emax [1] [fold] | Maximum fluorescence value [2] | Maximum fluorescence value [3] | Maximum fluorescence value [4] | 4-1BB/NF-κB luciferase reporter, CD40-crosslinked, Fold change in Emax [5] [fold] | 4-1BB/NF-κB luciferase reporter, FAP-crosslinked, Fold change in Emax [5] [fold] | 4-1BB/NF-κB luciferase reporter, uncrosslinked, Fold change in Emax [5] [fold] | Maximum fluorescence value [6] | CD40/NF-κB reporter (HEK-Blue CD40L), uncrosslinked, Fold change in Emax [7] [fold] | Maximum fluorescence value [8] | CD40/NF-κB reporter (HEK-Blue CD40L), 4-1BB-crosslinked, Fold change in Emax [9] [fold] | CD40/NF-κB reporter (HEK-Blue CD40L), FAP-crosslinked, Fold change in Emax [9] [fold] | CD40/NF-κB reporter (HEK-Blue CD40L), uncrosslinked, Fold change in Emax [9] [fold] | Maximum fluorescence value [10] | Maximum fluorescence value [11] | Maximum fluorescence value [12] | Maximum fluorescence value [13]
RO7300490 (2302(2+1)PG), FAP/CD40 bispecific antibody molecule, control | 1.06 | 1.02 | 1.01 | 1790 |  |  |  |  |  |  |  |  |  |  |  |  |  |  | 
IgG1 isotype control (antibody) | 1.05 | 1.08 | 1.1 | 65 | 61 | 69 | 1.06 | 1.04 | 1.05 | 62 | 0.99 | 63 | 0.99 | 0.99 | 1 | 67 | 62 | 64 | 63
